The values below come from US20230050148A1, “TGF-BETA INHIBITORS AND USE THEREOF” (SCHOLAR ROCK, INC., priority 2020, published 2023).

By koff is commonly meant a measure of how fast the partners let go of each other. Higher therefore signals a short-lived complex. Broadly, the kon is the rate constant with which the complex forms. High values mean fast association, low ones slow association.

One series deals with T1, human GARP-ProTGFb1 (Homo sapiens, UniProt P01137).
T1 construct: made in house
T1 sequence (P01137 30-390): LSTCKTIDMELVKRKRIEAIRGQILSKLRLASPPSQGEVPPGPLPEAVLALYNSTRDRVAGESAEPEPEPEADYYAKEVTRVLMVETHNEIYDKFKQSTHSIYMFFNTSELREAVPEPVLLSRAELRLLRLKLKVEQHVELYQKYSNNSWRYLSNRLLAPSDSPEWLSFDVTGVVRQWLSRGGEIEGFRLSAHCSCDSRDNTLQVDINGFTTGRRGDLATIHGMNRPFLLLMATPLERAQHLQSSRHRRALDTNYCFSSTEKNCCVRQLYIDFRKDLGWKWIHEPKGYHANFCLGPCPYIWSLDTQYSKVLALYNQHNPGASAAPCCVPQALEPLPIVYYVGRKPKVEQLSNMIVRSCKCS
T1 sequence (Q14392 20-627 partner limits assumed): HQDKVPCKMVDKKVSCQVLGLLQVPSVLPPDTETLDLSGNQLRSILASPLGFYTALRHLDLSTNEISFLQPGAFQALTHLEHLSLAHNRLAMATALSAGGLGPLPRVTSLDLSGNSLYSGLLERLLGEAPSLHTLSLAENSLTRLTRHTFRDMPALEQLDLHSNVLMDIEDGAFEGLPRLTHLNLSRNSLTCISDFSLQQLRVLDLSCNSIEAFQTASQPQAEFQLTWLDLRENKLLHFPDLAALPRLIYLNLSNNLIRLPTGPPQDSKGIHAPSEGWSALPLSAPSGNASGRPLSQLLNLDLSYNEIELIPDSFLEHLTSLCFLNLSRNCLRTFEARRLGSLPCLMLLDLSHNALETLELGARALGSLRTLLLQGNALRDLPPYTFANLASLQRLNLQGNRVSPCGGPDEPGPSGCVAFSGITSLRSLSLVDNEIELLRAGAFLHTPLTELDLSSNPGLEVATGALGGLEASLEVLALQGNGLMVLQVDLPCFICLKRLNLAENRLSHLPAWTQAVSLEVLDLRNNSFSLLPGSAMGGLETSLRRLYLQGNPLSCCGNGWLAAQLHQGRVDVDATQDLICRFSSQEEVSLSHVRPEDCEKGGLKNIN
Kind of series: SPR (Biacore 8K) Fab binding kinetics. As to conditions: Fab 0.62-10 nM, 1:1 binding model. How it is done:
(§1) Briefly, the binding kinetics were evaluated by surface plasmon resonance using Biacore 8K (GE Healthcare). A Biotin CAP sensor chip was used to capture the biotinylated antigens. Fabs at various concentrations (0 nM, 0.62 nM, 1.25 nM, 2.5 nM, 5 nM and 10 nM) were injected over the captured antigens. Multi-cycle kinetics was employed where each analyte concentration was injected in a separate cycle and the sensor chip surface was regenerated after each cycle. All the assays were carried out in freshly prepared 1×HBS-EP+ buffer (10 mM HEPES, 150 mM NaCl, 3 mM EDTA, 0.05% Tween20, pH 7.4). Data for all the analyte concentrations for each interaction were fit globally to a 1:1 binding model to obtain the kinetic parameters. The Sensorgram for 0 nM analyte concentration was used as reference.
(§2) Binding kinetics was evaluated by surface plasmon resonance using a Biacore 8K (GE) instrument. Biotinylated antigens were captured on a Biotin CAP chip and the Fab fragments of the antibodies were used as analytes. Sensorgrams for Fab binding at variable concentrations (0.6-10 nM) were globally fit to obtain the kinetic parameters. Binding kinetics for the Fabs were evaluated against each of the four human antigens, LTBP1-ProTGFb1, LTBP3-ProTGFb1, GARP-ProTGFb1, and LRRC33-ProTGFb1.
(In general: In SPR one partner is held on a chip, and binding of the other changes the refractive index at the surface.)

In another series the target is T2, human LRRC33-ProTGFb1 (Homo sapiens, UniProt P01137).
T2 construct: made in house
T2 sequence (P01137 30-390): as the sequence (P01137 30-390) above
T2 sequence (Q86YC3 19-650 partner limits assumed): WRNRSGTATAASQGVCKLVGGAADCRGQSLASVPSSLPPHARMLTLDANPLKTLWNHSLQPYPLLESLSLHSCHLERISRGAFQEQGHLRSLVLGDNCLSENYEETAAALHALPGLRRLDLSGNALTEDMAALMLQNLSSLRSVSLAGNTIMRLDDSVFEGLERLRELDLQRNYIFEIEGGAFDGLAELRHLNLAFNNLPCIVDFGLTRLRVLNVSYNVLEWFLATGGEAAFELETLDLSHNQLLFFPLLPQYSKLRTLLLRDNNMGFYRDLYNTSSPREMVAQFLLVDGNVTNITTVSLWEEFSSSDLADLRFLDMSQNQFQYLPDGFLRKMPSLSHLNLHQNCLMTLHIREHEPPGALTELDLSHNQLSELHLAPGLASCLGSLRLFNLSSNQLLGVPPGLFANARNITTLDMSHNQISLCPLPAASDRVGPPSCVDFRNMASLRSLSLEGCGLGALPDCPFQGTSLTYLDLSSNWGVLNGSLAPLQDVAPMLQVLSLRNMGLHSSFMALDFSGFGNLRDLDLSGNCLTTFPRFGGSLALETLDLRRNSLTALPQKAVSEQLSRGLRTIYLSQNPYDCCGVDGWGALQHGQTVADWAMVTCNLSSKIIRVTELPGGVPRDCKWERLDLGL
Description: SPR (Biacore 8K) Fab binding kinetics. As to conditions: Fab 0.62-10 nM, 1:1 binding model. How it is done:
as §1, §2

The next series deals with T3, human LTBP3-ProTGFb1 (Homo sapiens, UniProt P01137).
T3 construct: made in house; host or cells: Expi293F cells, co-transfected with pTT5 plasmids
T3 sequence (P01137 30-390): as the sequence (P01137 30-390) above
T3 sequence (Q9NS15 866-1039 partner limits assumed): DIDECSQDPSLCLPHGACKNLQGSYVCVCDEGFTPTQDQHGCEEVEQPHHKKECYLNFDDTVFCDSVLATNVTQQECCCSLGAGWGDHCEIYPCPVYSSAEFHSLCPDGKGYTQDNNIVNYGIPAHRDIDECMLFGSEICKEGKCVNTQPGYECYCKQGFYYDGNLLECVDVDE
Description: SPR (Biacore 8K) Fab binding kinetics. As to conditions: Fab 0.62-10 nM, 1:1 binding model. How it is done:
as §1, §2

A further series has as its target T4, human LTBP1-ProTGFb1 (Homo sapiens, UniProt P01137).
T4 construct: made in house; host or cells: Expi293F cells, co-transfected with pTT5 plasmids
Kind of series: SPR (Biacore 8K) Fab binding kinetics. As to conditions: Fab 0.62-10 nM, 1:1 binding model. As to the method: as §1, §2

The target of a further series is T5, proTGFβ1 / latent TGFβ1 (Homo sapiens, UniProt P01137, C33S).
T5 construct: The small latent TGFβ complexes were expressed with an N-terminal His-tag; His-tag (N); made in house; host or cells: Expi293F cells
T5 sequence (P01137 with tags, fused parts or gaps C33S): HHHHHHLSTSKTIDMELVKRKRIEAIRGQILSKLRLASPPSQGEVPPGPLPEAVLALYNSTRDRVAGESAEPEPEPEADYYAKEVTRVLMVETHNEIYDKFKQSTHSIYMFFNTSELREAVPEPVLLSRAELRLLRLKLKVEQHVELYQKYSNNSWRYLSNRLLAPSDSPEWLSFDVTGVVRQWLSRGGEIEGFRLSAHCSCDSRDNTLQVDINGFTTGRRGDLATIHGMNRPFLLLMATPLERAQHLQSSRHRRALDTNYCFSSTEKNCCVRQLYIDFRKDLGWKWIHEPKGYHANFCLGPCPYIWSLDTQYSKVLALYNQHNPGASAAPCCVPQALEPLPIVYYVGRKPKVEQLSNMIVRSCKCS
Kind of series: HDX-MS epitope mapping. Particulars: Fab binding. An excerpt:
To gain initial insights into the inhibitory mechanism of action for the isoform-selective inhibitors of TGFβ1 activation, we performed Hydrogen-Deuterium Exchange Mass Spectrometry (H/DX-MS) analysis to identify possible sites of latent TGFβ1 interaction with the antibody. Hydrogen/Deuterium exchange mass spectrometry (HDX-MS) is a widely used technique for exploring protein conformation in solution. HDX-MS methodology is described in Wei et al., Drug Discov Today. 2014 January; 19(1): 95-102, incorporated by reference in its entirety herein. Briefly, HDX-MS relies on the exchange of the protein backbone amide hydrogens with deuterium in solution. […]
Accurate mass and collision-induced dissociation in data-independent acquisition mode (MSE) and ProteinLynx Global Server (PLGS) 3.0 software (Waters Corp., Milford, Mass.) were used to determine the peptic peptides in the undeuterated protein samples analyzed on the same UPLC-ESI-QToF system used for H/DX-MS experiments. […] The relative deuterium incorporation of each peptide was determined by subtracting the weight-averaged centroid mass of the isotopic distribution of undeuterated control sample from that of the weight-averaged centroid mass of the isotopic distribution of deuterium-labeled samples at each labeling time point. […]

T4 sequence (P01137 30-390): as the sequence (P01137 30-390) above
T4 sequence (Q14766 873-1507 partner): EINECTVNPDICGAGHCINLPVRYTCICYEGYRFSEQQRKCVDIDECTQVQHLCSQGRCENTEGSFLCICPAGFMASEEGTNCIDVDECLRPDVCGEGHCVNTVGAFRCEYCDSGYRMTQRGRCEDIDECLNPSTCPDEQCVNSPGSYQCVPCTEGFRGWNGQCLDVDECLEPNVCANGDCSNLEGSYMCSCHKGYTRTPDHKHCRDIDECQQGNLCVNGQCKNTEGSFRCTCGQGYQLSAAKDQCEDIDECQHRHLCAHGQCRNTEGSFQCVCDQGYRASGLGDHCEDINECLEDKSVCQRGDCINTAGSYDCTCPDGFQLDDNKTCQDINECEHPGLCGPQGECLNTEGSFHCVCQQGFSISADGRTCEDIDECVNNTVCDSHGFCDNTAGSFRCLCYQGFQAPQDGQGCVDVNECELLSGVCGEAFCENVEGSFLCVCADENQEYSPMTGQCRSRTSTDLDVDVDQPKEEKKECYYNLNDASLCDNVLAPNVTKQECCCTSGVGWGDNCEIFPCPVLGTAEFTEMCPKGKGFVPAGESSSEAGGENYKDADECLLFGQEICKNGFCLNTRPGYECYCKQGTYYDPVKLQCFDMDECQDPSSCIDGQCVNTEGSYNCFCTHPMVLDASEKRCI

B1: Ab6 Fab: Fab fragment of Ab6 used as analyte in SPR and in HDX-MS (antibody, V domains shown)
VH: EVQLVESGGGLVQPGGSLRLSCTASGFTFSSFSMDWVRQAPGKGLEWVSYISPSADTIYYADSVKGRFTISRDNAKNTLYLQMNSLRAEDTAVYYCARGVLDYGDMLMPWGQGTLVTVSS
VL: DIQMTQSPSSLSASVGDRVTITCQASQDITNYLNWYQQKPGKAPKLLIYDASNLETGVPSRFSGSGSGTDFTFTISSLQPEDIATYYCQQADNHPPWTFGGGTKVEIK
As to B1, the koff was 0.000218 s⁻¹ with human GARP-ProTGFb1, 0.000123 s⁻¹ in the series with human LRRC33-ProTGFb1, 0.000831 s⁻¹ with human LTBP3-ProTGFb1 and 0.000255 s⁻¹ in the series with human LTBP1-ProTGFb1. For the same molecule, the on-rate constant (kon) was determined as 2.1e+06 M⁻¹ s⁻¹ in the series with human GARP-ProTGFb1, 845000 M⁻¹ s⁻¹ with human LRRC33-ProTGFb1, 1.7e+06 M⁻¹ s⁻¹ in the series with human LTBP3-ProTGFb1 and 2.05e+06 M⁻¹ s⁻¹ in the series with human LTBP1-ProTGFb1. Further, the “regions on proTGFβ1 strongly protected from deuterium exchange” value with proTGFβ1 / latent TGFβ1 is “three binding regions”.
